The values below come from paper PMC10919079, “Biosynthesis of UDP-α-N-Acetyl-D-mannosaminuronic Acid and CMP-β-N-Acetyl-D-neuraminic Acid for the Capsular Polysaccharides of Campylobacter jejuni” (Biochemistry, 2024).

One may read the Km as the concentration of substrate that gives half-maximal velocity. The kcat is the maximal rate divided by the concentration of active sites. For orientation: kcat/Km means the turnover number divided by the Michaelis constant.

The subject of data set [1] is CC(=O)N[C@H]1[C@@H](OP(=O)(O)OP(=O)(O)OC[C@H]2O[C@@H](n3ccc(=O)[nH]c3=O)[C@H](O)[C@@H]2O)O[C@H](CO)[C@@H](O)[C@@H]1O. The experiment in a line: purified protein. The following applies: pH 7.5, 25 °C.
For data set [2], the system named is CC(=O)N[C@@H]1[C@@H](OP(=O)(O)OP(=O)(O)OC[C@H]2O[C@@H](n3ccc(=O)[nH]c3=O)[C@H](O)[C@@H]2O)O[C@H](CO)[C@@H](O)[C@@H]1O. The experiment in a line: purified protein. To be noted: pH 7.5, 25 °C, same buffer, 2.0 mM NAD+, 2.0 mM DTT, UDP-ManNAc generated in situ from UDP-GlcNAc with excess C2-epimerase (10 μM).
The target in data set [3] is T1, CMP-Neu5Ac synthase (HS6.5) (Campylobacter jejuni, UniProt P0DY07).
T1 construct: full-length synthetic codon-optimised gene, N-terminal His6 tag kept, pET-28a(+), E. coli BL21(DE3)
T1 sequence (P0DY07 whole entry): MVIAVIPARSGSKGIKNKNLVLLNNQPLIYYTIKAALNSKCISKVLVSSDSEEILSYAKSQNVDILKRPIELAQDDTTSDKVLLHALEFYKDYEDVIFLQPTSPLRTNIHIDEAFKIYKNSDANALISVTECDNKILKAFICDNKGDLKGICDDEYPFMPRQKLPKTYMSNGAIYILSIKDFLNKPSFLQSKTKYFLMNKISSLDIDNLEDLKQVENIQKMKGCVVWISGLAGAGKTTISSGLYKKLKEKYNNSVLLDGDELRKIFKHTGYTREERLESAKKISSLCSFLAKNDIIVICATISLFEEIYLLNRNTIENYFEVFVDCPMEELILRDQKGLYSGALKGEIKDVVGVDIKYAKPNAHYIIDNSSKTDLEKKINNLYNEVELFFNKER
Description: anion exchange chromatography, NMR and MS of CMP-Neu5Ac product. It is filed as biochemical. To be noted: pH 7.5; Neu5Ac co-substrate, MgCl2, pyrophosphatase.

Setting [4] is: 50 mM HEPES, 250 mM KCl, 5% glycerol, excess C6-dehydrogenase (10 μM), 2.0 mM NAD+, 2.0 mM DTT.
Setting [5] is: same buffer, 10 mM MgCl2, 2.0 mM PEP, 300 μM NADH.

On to “nonhydrolyzing UDP-GlcNAc C2-epimerase (HS11.17) (Campylobacter jejuni)”, for which, in data set [1] (setting [4]), the Michaelis-Menten constant (Km) amounted to 1370 ± 50 µM, the kcat was 5.7 ± 0.2 s⁻¹ and the specificity constant (kcat/Km) was determined as 4200 ± 200 M⁻¹ s⁻¹.
In the case of “UDP-ManNAc C6-dehydrogenase (HS11.16) (Campylobacter jejuni)”, in data set [2], the Michaelis constant (Km) was found to be 22 ± 1 µM, the kcat worked out at 0.2 ± 0.01 s⁻¹ and the kcat/Km was 8700 ± 400 M⁻¹ s⁻¹.
Consider “hydrolyzing UDP-GlcNAc C2-epimerase (HS6.10) (Campylobacter jejuni subsp. jejuni 81116)”, for which, in data set [1] (setting [5]), the Michaelis constant (Km) was found to be 160 ± 10 µM, the kcat came out at 3.1 ± 0.1 s⁻¹ and the kcat/Km is 19900 ± 1000 M⁻¹ s⁻¹.
Consider `Nc1ccn([C@@H]2O[C@H](COP(=O)(O)OP(=O)(O)OP(=O)(O)O)[C@@H](O)[C@H]2O)c(=O)n1` [CTP], for which the “anion exchange chromatography, NMR and MS of CMP-Neu5Ac product” value in data set [3] is recorded as “CMP-Neu5Ac synthase using CTP as the nucleotide donor”.
